Experiment: soluble on expression in E. coli; label from the status in PepcDB or PDB records
In the case of “MTTFILSHNLQVQSKDVPPFETQVLADGIVSNSSAIISATVIQHPHWIIELTSNLPPNDMAVELVKSWKQLRSKLGQSADHVILALGGRKDSLAAPGAPLQEGFWGVDVVETHDEEAFLQAINWDALKSNRPEDGVFEISSNN”, the “soluble on expression in E. coli” value is reported as “not soluble”. For “MEALRLEGVSKRYGRRPVLEGVSLSVRPGEVYALAGPNGSGKTTLIRLATGLAFPTKGRAFLLGEDVHKSPAARRHLGAVVEAPAAFYPYLTGRENLRMHARLSGVEDEARIGEVLARLKLLAVADQKVEGYSLGQRQRLGLAAAILHRPKVLVLDEPTSGLDPEGVELVHRLLQELAREGVAILLSTHHLQEVARYAHRVGILGGGRLLDEVVLSGKEAYRLEAEPLEGALALLKTLPQVASARLQGRSVVFEGEPEAALRALLAEGYRVRALAPHRFDLLDYYQERVRHV”, the “soluble on expression in E. coli” value was “soluble”. In the case of “MAHHHHHHMDTSARRCFVEVYTDGCDEPRLLQLEPTVKFHNVLRRFDKDGDLYWGDHRIDPQTTPVAVGMDCGVDKANTLWFIPALPRAKPCGVSRVDSTAPLGSPPPVDATEGPALRPARGTSLPAYFDDRAAPWHSSGDHAARGSLIRAWMASASAATTPSWYSRPRLLSPVPLSLPRSAVRVPHTQVQPPSGMPTDPIMHAAGGSRHTGAPVAALEAHGGEKIAPVRRLCAAPAPRAPSPPHSTVPVRRNAPVCIDPHVLVDDTSDAVEALQTELRHLSSEMRAMRLRNPLDYNSVTPMRQVVVRPAGMDAAPAIASPICLSMAEPSVEELATELHDKQMHRLYKQRHLYLTHDFHV”, the “soluble on expression in E. coli” value is reported as “not soluble”. With “MADGVLAVSQEGFNTLQSYNVGEKYTADLWIQQGGLKSTASVVSFSVDKALLDSMNIADGTSYELLPADCYQLTKSSVDIPANERLLKGELTYDPAKIQELSGYDHLKYVLPLRATSSGMPFVSGRSVLLLGFKVSEPIVTIMNAGVEEINLAEVKELPVQIGVPFTNKWEISCRLESRQSVIDAYNTAHGTYFSMLPSDAYVTPETPILHSGVNQVTATYKLKDDILPGNYMLPVQIAEVTSDATIRADKDVYAAYSIIKEGDKLSKTDWKIVSFTTEEASGEGSNNGHAKHLIDGNIETFWHSRWQGGSDPLPYEIIIDMNHRVKIAQIELLPRGRGSNNPIKVVRFEASEDGTNWESIGQFGFTNQDAALKYYVKSSTARYIKLVIPDGVGNGTVAAIRELDVRGTVVNLEHHHHHH” the “soluble on expression in E. coli” value was “soluble”. With “MARGREAVTLLLVGWGYAPGMQTLEALDAVRRADVVYVESYTMPGSSWLYKSVVEAAGEARVVEASRRDLEERSREIVSRALDAVVAVVTAGDPMVATTHSSLAAEALEAGVAVRYIPGVSGVQAARGATMLSFYRFGGTVTLPGPWRGVTPISVARRIYLNLCAGLHTTALLDVDERGVQLSPGQGVSLLLEADREYAREAGAPALLARLPSVLVEAGAGGGHRVLYWSSLERLSTADVEGGVYSIVIPARLSGVEEWLLAAASGQRRPLEYDRSVYETVEENCKKGVYMEPV” the “soluble on expression in E. coli” value was “soluble”. For “MGSDKIHHHHHHMAELSTRYNPAEIETKWYRYWEEKGYFTPKGVGEKFSIVIPPPNITGRIHMGHALNITLQDIVVRYKRMKGYDVLWVPGEDHAGIATQNAVEKFLLQTQGKTREEIGREKFLEITWEWANKYRREIREQIKALGASVDWTRERFTLDEGLSRAVRKVFVELYRKGLIYRGKYIVNWCPRCKTVLSDEEVEHKEHKSKLYYVKYPVKDSDEYIVVATTRPETMLGDTAVAVHPEDERYKNFVGKTLILPLVGREIPVVADKYVDPKFGTGAVKVTPAHDPNDYLIAQRHNLPMIEIFDDNARINENGGKYKGLDRYEAREKIVKDLEEQGFLVKIEDYTHSVGHCYRCDTVIEPKLSDQWFVSTKPLAKRAIEAVENGEIRFFPERWTKVYLNWMYEIRDWCISRQLWWGHRIPVWYCQDCGHLNVSEEDVEKCEKCGSTNLKQDEDVLDTWFSSALWPFSTLGWPEETEDLKRYYPTDLLVTGFDIIFFWVARMIMMGYEFMNDKPFSHVYIHQLVRDKYGRKMSKSLGNGIDPLEVIDEYGADPMRFTLAILAAQGRDIKLDPRYFDAYKKFANKIWNATRFVLMNLEDYKEVPLENLKTVDKWILTRLNKTVEEVTNALENYDFNIAARTIYNFFWDDFCDWYIEASKPRLKTEERNLVQTVLVKVLDASLRLLHPFMPFLTEELWQKLPVAGESITIAKWPEIERELIDETAEKEFTRLMNMVRGVRNVRAEMNLPQSQRVKVYIKGYEVTEEEELLLKTLGNIEEVSFVNEKPPKTATAYVEEEIEAYVDLGGLIDFEKEKERLKQIMEKIQKEIDRLEKKLANKDFVEKAPEEVVEETKEKLNTNRERLARLESILRDLE”, the “soluble on expression in E. coli” value was “not soluble”. With “MYLAYYGFAEKPFQLKPDPNFFFPSRGHKRAAAYLEYGLSQEDGFIIITGDVGAGKTTLMRYLFQKLRQERVAAAQLVSTRLDPDDALRMVAAAFGLSYEGLSKAALLLELERFMRKCERESTRVLLVVDEAQNLLPQTLEELRMLSNFQSDNRPLLQTFLLGQPEFRRTLLGSQMQQLRQRVIATYHLGPLDQAETRAYIEHRLQKAGWNGSPVLQDEIFEVIHNFSAGIPRKINLFCDRLLIMGCLEELQTLGKAEANEVMLDIQKEFDLAVSPELEHHHHHH” the “soluble on expression in E. coli” value was “soluble”. For “MGSDKIHHHHHHVLSNPSQVVLRNIELFESKNVLLINHECDLLATALLEDAAKVTTLALDFNHFQRIKSHENARLQCHFGHQLPSTQTFDAVVLFYPKSKSLAPYLLNLAGRHLIPGGELVIVGEKKGGIRSITKQLPDYFDGGIKLDNARHCMLYSSSLLSEAPEIKLSDWVKDYVLSTPQGELTICNLVGVFSEKRLDEGTELLLEHLPTLKGRVLDFGCGAGVITAALLKANPDLELECVDINAMALASCELTLAANGMQAKVYASDGLTQTQGMFDAIISNPPFHDGLDSTTEIATRFVQESEAQLKSGGIFQIVANRHLPYSDTIAKFFKTVNVAAENNKYKIYANRKA”, the “soluble on expression in E. coli” value was “not soluble”. In the case of “MTSPMTSKDSKLTLAEKVWRDHVVSQGEGDQPDLIFIDLQLLHEVTSPQAFDGLRMAGRTLRHPELHLATEDHNVPTEGIHNGSLLEINDLVSRTQVETLRKNCEEFGVRLHAMGDKKQGIVHQVGPQLGATQPGMTIVCGDSHTSTHGAFGAMAFGIGTSEVEHVMATQTLSLKPFKTMAINVTGELQPGVTAKD”, the “soluble on expression in E. coli” value is reported as “not soluble”. For “MVPDRREQSKAKERLLEREEALAKHMSEREKRPPPKIDPPPSPKAPEPSKRVLKEKQAPLFVDTAVEGTLPPLSLLDPAEVKQKSYSPESLEAMSRLLEIKLKEFGVEVSVDSVHPGPVITRFEIQPAAGVKVSRISNLAKDLARSLAVISVRVVEVIPGKTTVGIEIPNEDRQMVRFSEVLSSPEYDEHKSTVPLALGHDIGGRPIITDLAKMPHLLVAGTTGSGKSVGVNAMLLSILFKSTPSEARLIMIDPKMLELSIYEGIPHLLCPVVTDMKEAANALRWSVAEMERRYRLMAAMGVRNLAGFNRKVKDAEEAGTPLTDPLFRRESPDDEPPQLSTLPTIVVVVDEFADMMMIVGKKVEELIARIAQKARAAGIHLILATQRPSVDVITGLIKANIPTRIAFQVSSKIDSRTILDQGGAEQLLGHGDMLYLPPGTGLPIRVHGAFVSDDEVHRVVEAWKLRGAPDYIEDILAGVDEGGGGGGSFDGGDGSGEGSEDDPLYDEAVRFVTESRRASISAVQRKLKIGYNRAARMIEAMEMAGVVTPMNTNGSREVIAPAPVRDKLHHHHHH”, the “soluble on expression in E. coli” value was “soluble”. In the case of “MLIKRLAFAIMTLVIMTSAGCGFKLQRSYQIPEQLNQLSLSSSDEYSELTRLVRERLRLNNVKIVDAANDVPVLRLITDSLERSTLSLYPTGNVAEYELIYFVEFAVALPGKEAQPFKIEIRRDYLDDPRTALAKSREMELLVKEMRIQAADRILQSMASTEVNLEHHHHHH”, the “soluble on expression in E. coli” value is reported as “soluble”. For “MSLQFIGAGLGRTGTLSLKLALERLGVGRCYHAMELAANLRQDLPQWESAIDGRPDWDRIFAGYAATTDYPGCCFWMELAARYPHAKVILTVRDPDAWFDSVSATIFSGSNNLPSLFGSRGQRLSQFLRRDLGARLGERAFMTDYFRRWNQAVITHIPAPRLLVLDTDTESSWERLCAFLALPVPAFPYPRVHMRGASVPQRPLPTEPALIEQRMRTYLDRLAEEAFAPPTAPLEHHHHHH”, the “soluble on expression in E. coli” value was “soluble”. For “GSHMASMTGGQQMGRGSENLYFQGNPILAGLGFSLPKRQVSNHDLVGRINTSDEFIVERTGVRTRYHVEPEQAVSALMVPAARQAIEAAGLLPEDIDLLLVNTLSPDHHDPSQACLIQPLLGLRHIPVLDIRAQCSGLLYGLQMARGQILAGLARHVLVVCGEVLSKRMDCSDRGRNLSILLGDGAGAVVVSAGESLEDGLLDLRLGADGNYFDLLMTAAPGSASPTFLDENVLREGGGEFLMRGRPMFEHASQTLVRIAGEMLAAHELTLDDIDHVICHQPNLRILDAVQEQLGIPQHKFAVTVDRLGNMASASTPVTLAMFWPDIQPGQRVLVLTYGSGATWGAALYRKPEEVNRPC”, the “soluble on expression in E. coli” value was “soluble”.
